Measurements published in patent CN117247456A (SANYOU BIO INC, dated 2023).

Columns and labels:
[1] = molecular target: T1, 人PD-L1 on huPD-L1-CHO-S细胞 (human, UniProt Q9NZQ7 19-290); assay: flow cytometry on huPD-L1-CHO-S cells (reference antibody)
T1 construct: whole, on cells; also called 细胞表面PD-L1

重组人PD-L1-His = 重组人PD-L1-His (human, UniProt Q9NZQ7 19-238); assay: SPR, Biacore T200, PD-L1-His as analyte (reference antibody)
重组人PD-L1-mFc = molecular target: T2, 重组人PD-L1-mFc (human, UniProt Q9NZQ7 19-238); assay: ELISA, plate coated with PD-L1-mFc, anti-human IgG Fc-HRP (reference antibody)
T2 construct: also called 人重组蛋白PD-L1-mFc; PD-L1蛋白
T2 sequence (Q9NZQ7 19-238 limits assumed): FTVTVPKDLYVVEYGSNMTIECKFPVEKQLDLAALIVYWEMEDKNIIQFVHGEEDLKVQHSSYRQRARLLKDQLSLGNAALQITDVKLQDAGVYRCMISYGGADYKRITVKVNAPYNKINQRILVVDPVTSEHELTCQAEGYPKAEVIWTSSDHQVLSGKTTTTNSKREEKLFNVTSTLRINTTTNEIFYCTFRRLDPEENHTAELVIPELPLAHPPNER

T1 sequence (Q9NZQ7 19-290): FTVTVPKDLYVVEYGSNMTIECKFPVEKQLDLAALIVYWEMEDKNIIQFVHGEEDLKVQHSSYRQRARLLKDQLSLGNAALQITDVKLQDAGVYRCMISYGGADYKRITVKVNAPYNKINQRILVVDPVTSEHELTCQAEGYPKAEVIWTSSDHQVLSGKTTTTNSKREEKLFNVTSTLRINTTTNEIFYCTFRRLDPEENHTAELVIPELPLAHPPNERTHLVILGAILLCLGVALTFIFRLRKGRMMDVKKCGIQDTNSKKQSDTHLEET
重组人PD-L1-His, sequence (Q9NZQ7 19-238 limits assumed): as the sequence (Q9NZQ7 19-238 limits assumed) above

binding result [1]: binds | binding result (重组人PD-L1-His): binds | binding result (重组人PD-L1-mFc): binds
B1: 抗人PD-L1抗体D21-4 (antibody, V domains shown)
VH: EVQLVESGGGLVQPGGSLRLSCAASRTDRNINTMHWYRQAPGKGREWVGTIFIDLNTIVTDSVKGRFTISRDNAKNTLYLQMNTLRAEDTAVYYCAADVSGYGRAWGQGTTVTVSS
notes: also called 亲本抗体D21-4; 亲本PD-L1抗体D21-4; not shown: rest of the 'complete control antibody' (constant part / Fc) is not described
